From patent US20100003258A1 (AVEO PHARMACEUTICALS, published 2010)

Key:
[1] = target: T1, recombinant human FGFR3 IIIb Fc fusion protein (human, UniProt P22607-2 23-377, limits assumed); experiment: SPR (Biacore T100), antibody captured on anti-mouse Ig, rhFGFR3 IIIb Fc as analyte, 25 C
T1 construct: Bought reagent; the IIIb splice isoform is meant; also called rhFGFR3 IIIb Fc; hFGFR3 IIIb; not shown: Fc fragment (removable by Factor Xa, detected with anti-human IgG)
T1 sequence (looked up): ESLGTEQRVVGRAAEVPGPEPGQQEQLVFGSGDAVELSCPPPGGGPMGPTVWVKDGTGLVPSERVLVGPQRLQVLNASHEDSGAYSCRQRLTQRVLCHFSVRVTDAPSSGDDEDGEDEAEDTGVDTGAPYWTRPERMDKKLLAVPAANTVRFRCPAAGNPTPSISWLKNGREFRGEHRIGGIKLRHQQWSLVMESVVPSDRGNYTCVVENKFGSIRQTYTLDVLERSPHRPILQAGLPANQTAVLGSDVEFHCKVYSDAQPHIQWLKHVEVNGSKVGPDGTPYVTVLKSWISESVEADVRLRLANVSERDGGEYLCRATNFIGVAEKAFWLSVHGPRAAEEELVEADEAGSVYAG
Description: (§1) The binding affinities and kinetics of interaction of the monoclonal antibodies (15D8, 27H2, 2G4, and 4E7(7D12)) produced in Example 1 against recombinant human FGFR3 (IIIb and IIIc isoforms) Fc fusion protein (rhFGFR3 IIIb Fc or rhFGFR3 IIIc Fc) were measured by surface plasmon resonance using a Biacore™ T100 (Biacore) instrument.
(§2) Rabbit anti-mouse immunoglobulins (Biacore, Catalog No. BR-1005-14) were immobilized on carboxymethylated dextran CM4 sensor chips (Biacore, Catalog No. BR-1005-34) by amine coupling (Biacore, Catalog No. BR-1000-50) using a standard coupling protocol according to manufacturer's instructions.
(§3) The antibodies were captured in an individual flow cell at a flow rate of 10 μl/min. Injection time was varied for each antibody to yield approximately 40-50 RU of antibody captured for each cycle. Buffer or rhFGFR3 IIIb Fc (R&D Systems, Catalog No. 1264-FR-050) or rhFGFR3 IIIc Fc (R&D Systems, Catalog No. 766-FR-050) diluted in running buffer was injected sequentially over a reference surface (no antibody captured) and the active surface (antibody to be tested) for 300 sec at 60 μl/min. The dissociation phase was monitored for 30 minutes. The surface was then regenerated with two 60-seconds injection of 10 mM Glycine-HCl, pH 1.7 (made from Glycine pH 1.5 (Biacore, Catalog No. BR-1003-54) and pH 2.0 (Biacore, Catalog No. BR-1003-55)) at a flow rate of 60 μl/min. rhFGFR3 Fc concentrations tested were 0.62 nM to 40 nM.

[2] = target: T2, recombinant human FGFR3 IIIc Fc fusion protein (human, UniProt P22607 23-375); experiment: SPR (Biacore T100), antibody captured on anti-mouse Ig, rhFGFR3 IIIc Fc as analyte, 25 C
T2 construct: Bought reagent; also called rhFGFR3 IIIc Fc; not shown: Fc fragment (removable by Factor Xa)
T2 sequence (looked up): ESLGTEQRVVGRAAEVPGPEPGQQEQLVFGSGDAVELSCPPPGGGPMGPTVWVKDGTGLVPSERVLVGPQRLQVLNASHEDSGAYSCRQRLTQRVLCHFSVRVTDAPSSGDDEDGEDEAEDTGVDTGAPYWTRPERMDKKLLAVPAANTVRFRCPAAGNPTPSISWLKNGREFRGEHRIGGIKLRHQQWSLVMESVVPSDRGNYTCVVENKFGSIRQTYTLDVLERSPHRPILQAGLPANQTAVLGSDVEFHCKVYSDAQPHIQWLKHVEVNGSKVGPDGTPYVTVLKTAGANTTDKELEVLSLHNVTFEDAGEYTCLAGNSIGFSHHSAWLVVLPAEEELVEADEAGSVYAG
Description: as §1, §2, §3

[3] = target: T1, recombinant human FGFR3 IIIb Fc fusion …; experiment: SPR (Biacore T100), antibody captured on anti-mouse Ig, rhFGFR3 IIIb Fc as analyte, 37 C
Description: as §1, §2, §3

[4] = target: T2, recombinant human FGFR3 IIIc Fc fusion …; experiment: SPR (Biacore T100), antibody captured on anti-mouse Ig, rhFGFR3 IIIc Fc as analyte, 37 C
Description: as §1, §2, §3

[5] = target: T1, recombinant human FGFR3 IIIb Fc fusion …; experiment: ECL competition assay: inhibition of rhFGFR3 IIIb Fc binding to coated FGF1 (competitor FGF1)
Description: The antibodies were tested by ECL (Electrochemiluminescence) assay for inhibition of hFGFR3 IIIB binding to FGF-1. […] The plates then were washed 3 times with PBS and blocked with 200 μl of PBS containing 5% BSA (Sera Care Life Sciences, Catalog No. AP-4510-80) and 5 μg/mL heparin (Sigma, Catalog No. H4784) for 1 hour at room temperature. The antibodies (concentration range: 0.029-30 μg/mL) were incubated for 1 hour at room temperature with 1.7 μg/mL rhFGFR3 IIIb Fc (R&D Systems, Catalog No. 1264-FR-050) and 5 μg/mL heparin. After washing the plates 3 times with PBS, 25 μl of the antibody-receptor mixture was added to the plates for another hour at room temperature with agitation. The plates were washed three times with PBS and incubated with 25 μl of 1 μg/mL ST-anti-human IgG antibody (Meso Scale Discovery, Catalog No. R32AJ-1) for 1 hour at room temperature with agitation. The plates then were washed 3 times with PBS, and 150 μl of 1× read buffer (Meso Scale Discovery, Catalog No. R92TC-1) was added to each well before the plates were analyzed on a Sector Imager 2400 (Meso Scale Discovery) instrument.

Kd [1]: 2.6 nM | koff [1]: 0.00033 s⁻¹ | kon [1]: 200000 M⁻¹ s⁻¹ | Kd [2]: 2.2 nM | koff [2]: 0.0002 s⁻¹ | kon [2]: 93000 M⁻¹ s⁻¹ | Kd [3]: 3.2 nM | koff [3]: 0.0003 s⁻¹ | kon [3]: 94000 M⁻¹ s⁻¹ | Kd [4]: 1.8 nM | koff [4]: 0.00018 s⁻¹ | kon [4]: 120000 M⁻¹ s⁻¹ | Maximum Neutralization (%) [5]: 80.5%
B1: anti-FGFR3 monoclonal antibody 15D8 (antibody, mouse IgG1, kappa)
heavy: EIQLQQSGPELVKPGASVKVSCKASGYAFTSYNMYWVKQSHGKSLEWIGYIDPYNGGTSYNQKFKGKATLTVDKSSSTAYMHLNSLTSEDSAVYYCAREGGNYEAWFAYWGQGTLVTVSAAKTTPPSVYPLAPGSAAQTNSMVTLGCLVKGYFPEPVTVTWNSGSLSSGVHTFPAVLQSDLYTLSSSVTVPSSTWPSETVTCNVAHPASSTKVDKKIVPRDCGCKPCICTVPEVSSVFIFPPKPKDVLTITLTPKVTCVVVDISKDDPEVQFSWFVDDVEVHTAQTQPREEQFNSTFRSVSELPIMHQDWLNGKEFKCRVNSAAFPAPIEKTISKTKGRPKAPQVYTIPPPKEQMAKDKVSLTCMITDFFPEDITVEWQWNGQPAENYKNTQPIMDTDGSYFVYSKLNVQKSNWEAGNTFTCSVLHEGLHNHHTEKSLSHSPGK
light: QIVLTQSPALMSASPGEKVTMTCSASSSVSYMYWYQQKPRSSPKPWIYLTSYLASGVPARFSGSGSGTSYSLTISSMEAEDAATYYCQQWSSYPLTFGAGTKLELKRADAAPTVSIFPPSSEQLTSGGASVVCFLNNFYPKDINVKWKIDGSERQNGVLNSWTDQDSKDSTYSMSSTLTLTKDEYERHNSYTCEATHKTSTSPIVKSFNRNEC
notes: also called 15D8 IgG1; murine antibody 15D8
